Source: patent US12467053 (BIOMOLECULAR, dated 2025)

How the values were obtained:
TNF-alpha (R&D Systems) [1] = biological target: T1, TNF-alpha (R&D Systems) (UniProt P01375 77-233); experiment: Biacore T-100 SPR, response against TNF-alpha concentration. Symmetroadhesin amine-coupled to a CM-5 chip.
T1 construct: also called tumor necrosis factor α; TNF-α

TNF-alpha (R&D Systems) [2] = biological target: T1, TNF-alpha (R&D Systems); experiment: Biacore T-100 SPR, response against TNF-alpha concentration. Symmetroadhesin thiol-coupled to a CM-5 chip.

T1 sequence (P01375 77-233 limits assumed): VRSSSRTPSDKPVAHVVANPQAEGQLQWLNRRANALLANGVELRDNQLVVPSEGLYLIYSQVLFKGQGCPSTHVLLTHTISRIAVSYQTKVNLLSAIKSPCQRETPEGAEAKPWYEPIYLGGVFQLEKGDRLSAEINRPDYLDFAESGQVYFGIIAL

B1: TNR1B symmetroadhesin of FIG. 44A (iv) (human TNR1B extracellular domain with a C-terminal-X-terminus) (receptor)
chain: LPAQVAFTPYAPEPGSTCRLREYYDQTAQMCCSKCSPGQHAKVFCTKTSDTVCDSCEDSTYTQLWNWVPECLSCGSRCSSDQVETQACTREQNRICTCRPGWYCALSKQEGCRLCAPLRKCRPGFGVARPGTETSDVVCKPCAPGTFSNTTSSTDICRPHQICNVVAIPGNASMDAVCTSTSPTRSMAPGAVHLPQPVSTRSQHTQPTPEPSTAPSTSFLLPMGPSPPAEGSTGDGC
modifications: C-terminal X residue (residue 237) added by native chemical ligation; cysteine in the material made (cleavage/elution with cysteine)
notes: The same molecule was immobilised by amine chemistry and by thiol chemistry; also called TNR1B-X; TNR2-X
In the case of B1, the “EC50 (read off the curve)” value (TNF-alpha (R&D Systems) [1]) is reported as roughly 4 nM and the “EC50 (read off the curve)” value (TNF-alpha (R&D Systems) [2]) is reported as roughly 0.9 nM.
